# Starred links: 1 amine or outer side, 2 acyl side, 3 side chain; linkers in the order of their positions; H or OH if unused. Non-standard residues stand in square brackets, D forms with d. Groups on a side chain read outwards from the residue. No end group written: not given here. *: point of attachment. C20 diacid = O=C(O)CCCCCCCCCCCCCCCCCCC(=O)*; C18 diacid = O=C(O)CCCCCCCCCCCCCCCCC(=O)*; γGlu = O=C(O)[C@H](CCC(=O)[*:2])N[*:1]; αMeF = C[C@](N)(Cc1ccccc1)C(=O)O; AEEA = NCCOCCOCC(=O)O; Aib = CC(C)(N)C(=O)O
# B1: Peptide 148 (peptide)
# peptide: H[Aib]QGTFTSDVSK[αMeF]LDSK([AEEA-AEEA-γGlu-C18 diacid])RAQDFVRWIAE[Aib]G-OH
# modifications: N-terminus assumed
# SMILES: CC[C@H](C)[C@H](NC(=O)[C@H](Cc1c[nH]c2ccccc12)NC(=O)[C@H](CCCNC(=N)N)NC(=O)[C@@H](NC(=O)[C@H](Cc1ccccc1)NC(=O)[C@H](CC(=O)O)NC(=O)[C@H](CCC(N)=O)NC(=O)[C@H](C)NC(=O)[C@H](CCCNC(=N)N)NC(=O)[C@H](CCCCNC(=O)COCCOCCNC(=O)COCCOCCNC(=O)CC[C@H](NC(=O)CCCCCCCCCCCCCCCCC(=O)O)C(=O)O)NC(=O)[C@H](CO)NC(=O)[C@H](CC(=O)O)NC(=O)[C@H](CC(C)C)NC(=O)[C@](C)(Cc1ccccc1)NC(=O)[C@H](CCCCN)NC(=O)[C@H](CO)NC(=O)[C@@H](NC(=O)[C@H](CC(=O)O)NC(=O)[C@H](CO)NC(=O)[C@@H](NC(=O)[C@H](Cc1ccccc1)NC(=O)[C@@H](NC(=O)CNC(=O)[C@H](CCC(N)=O)NC(=O)C(C)(C)NC(=O)[C@@H](N)Cc1c[nH]cn1)[C@@H](C)O)[C@@H](C)O)C(C)C)C(C)C)C(=O)N[C@@H](C)C(=O)N[C@@H](CCC(=O)O)C(=O)NC(C)(C)C(=O)NCC(=O)O
# B2: Peptide 147 (peptide)
# peptide: H[Aib]QGTFTSDVSK[αMeF]LDSK([AEEA-AEEA-γGlu-C18 diacid])RAQDFVRWLEA[Aib]G-OH
# modifications: N-terminus assumed
# SMILES: CC(C)C[C@H](NC(=O)[C@H](Cc1c[nH]c2ccccc12)NC(=O)[C@H](CCCNC(=N)N)NC(=O)[C@@H](NC(=O)[C@H](Cc1ccccc1)NC(=O)[C@H](CC(=O)O)NC(=O)[C@H](CCC(N)=O)NC(=O)[C@H](C)NC(=O)[C@H](CCCNC(=N)N)NC(=O)[C@H](CCCCNC(=O)COCCOCCNC(=O)COCCOCCNC(=O)CC[C@H](NC(=O)CCCCCCCCCCCCCCCCC(=O)O)C(=O)O)NC(=O)[C@H](CO)NC(=O)[C@H](CC(=O)O)NC(=O)[C@H](CC(C)C)NC(=O)[C@](C)(Cc1ccccc1)NC(=O)[C@H](CCCCN)NC(=O)[C@H](CO)NC(=O)[C@@H](NC(=O)[C@H](CC(=O)O)NC(=O)[C@H](CO)NC(=O)[C@@H](NC(=O)[C@H](Cc1ccccc1)NC(=O)[C@@H](NC(=O)CNC(=O)[C@H](CCC(N)=O)NC(=O)C(C)(C)NC(=O)[C@@H](N)Cc1c[nH]cn1)[C@@H](C)O)[C@@H](C)O)C(C)C)C(C)C)C(=O)N[C@@H](CCC(=O)O)C(=O)N[C@@H](C)C(=O)NC(C)(C)C(=O)NCC(=O)O
# B3: Peptide 149 (peptide)
# peptide: H[Aib]QGTFTSDVSK[αMeF]LDSK([AEEA-AEEA-γGlu-C18 diacid])RAQDFVRWVVE[Aib]G-OH
# modifications: N-terminus assumed
# SMILES: CC(C)C[C@H](NC(=O)[C@](C)(Cc1ccccc1)NC(=O)[C@H](CCCCN)NC(=O)[C@H](CO)NC(=O)[C@@H](NC(=O)[C@H](CC(=O)O)NC(=O)[C@H](CO)NC(=O)[C@@H](NC(=O)[C@H](Cc1ccccc1)NC(=O)[C@@H](NC(=O)CNC(=O)[C@H](CCC(N)=O)NC(=O)C(C)(C)NC(=O)[C@@H](N)Cc1c[nH]cn1)[C@@H](C)O)[C@@H](C)O)C(C)C)C(=O)N[C@@H](CC(=O)O)C(=O)N[C@@H](CO)C(=O)N[C@@H](CCCCNC(=O)COCCOCCNC(=O)COCCOCCNC(=O)CC[C@H](NC(=O)CCCCCCCCCCCCCCCCC(=O)O)C(=O)O)C(=O)N[C@@H](CCCNC(=N)N)C(=O)N[C@@H](C)C(=O)N[C@@H](CCC(N)=O)C(=O)N[C@@H](CC(=O)O)C(=O)N[C@@H](Cc1ccccc1)C(=O)N[C@H](C(=O)N[C@@H](CCCNC(=N)N)C(=O)N[C@@H](Cc1c[nH]c2ccccc12)C(=O)N[C@H](C(=O)N[C@H](C(=O)N[C@@H](CCC(=O)O)C(=O)NC(C)(C)C(=O)NCC(=O)O)C(C)C)C(C)C)C(C)C
# B4: Peptide 210 (peptide)
# peptide: H[Aib]HGS[αMeF]TSDVSK[αMeF]LDSQAAK([AEEA-AEEA-γGlu-γGlu-C18 diacid])DFVEWIANT-NH2
# modifications: N-terminus assumed
# SMILES: CC[C@H](C)[C@H](NC(=O)[C@H](Cc1c[nH]c2ccccc12)NC(=O)[C@H](CCC(=O)O)NC(=O)[C@@H](NC(=O)[C@H](Cc1ccccc1)NC(=O)[C@H](CC(=O)O)NC(=O)[C@H](CCCCNC(=O)COCCOCCNC(=O)COCCOCCNC(=O)CC[C@H](NC(=O)CC[C@H](NC(=O)CCCCCCCCCCCCCCCCC(=O)O)C(=O)O)C(=O)O)NC(=O)[C@H](C)NC(=O)[C@H](C)NC(=O)[C@H](CCC(N)=O)NC(=O)[C@H](CO)NC(=O)[C@H](CC(=O)O)NC(=O)[C@H](CC(C)C)NC(=O)[C@](C)(Cc1ccccc1)NC(=O)[C@H](CCCCN)NC(=O)[C@H](CO)NC(=O)[C@@H](NC(=O)[C@H](CC(=O)O)NC(=O)[C@H](CO)NC(=O)[C@@H](NC(=O)[C@](C)(Cc1ccccc1)NC(=O)[C@H](CO)NC(=O)CNC(=O)[C@H](Cc1c[nH]cn1)NC(=O)C(C)(C)NC(=O)[C@@H](N)Cc1c[nH]cn1)[C@@H](C)O)C(C)C)C(C)C)C(=O)N[C@@H](C)C(=O)N[C@@H](CC(N)=O)C(=O)N[C@H](C(N)=O)[C@@H](C)O
# B5: Peptide 221 (peptide)
# peptide: H[Aib]HGS[αMeF]TSDVSK[αMeF]LDSR[Aib]AK([AEEA-AEEA-γGlu-γGlu-C20 diacid])DFVQ[Aib]IANT-NH2
# modifications: not fully specified
# B6: Peptide 215 (peptide)
# peptide: H[Aib]HGS[αMeF]TSDVSK[αMeF]LDSRAAK([AEEA-AEEA-γGlu-C20 diacid])D[αMeF]VQWIANT-NH2
# modifications: N-terminus assumed
# SMILES: CC[C@H](C)[C@H](NC(=O)[C@H](Cc1c[nH]c2ccccc12)NC(=O)[C@H](CCC(N)=O)NC(=O)[C@@H](NC(=O)[C@](C)(Cc1ccccc1)NC(=O)[C@H](CC(=O)O)NC(=O)[C@H](CCCCNC(=O)COCCOCCNC(=O)COCCOCCNC(=O)CC[C@H](NC(=O)CCCCCCCCCCCCCCCCCCC(=O)O)C(=O)O)NC(=O)[C@H](C)NC(=O)[C@H](C)NC(=O)[C@H](CCCNC(=N)N)NC(=O)[C@H](CO)NC(=O)[C@H](CC(=O)O)NC(=O)[C@H](CC(C)C)NC(=O)[C@](C)(Cc1ccccc1)NC(=O)[C@H](CCCCN)NC(=O)[C@H](CO)NC(=O)[C@@H](NC(=O)[C@H](CC(=O)O)NC(=O)[C@H](CO)NC(=O)[C@@H](NC(=O)[C@](C)(Cc1ccccc1)NC(=O)[C@H](CO)NC(=O)CNC(=O)[C@H](Cc1c[nH]cn1)NC(=O)C(C)(C)NC(=O)[C@@H](N)Cc1c[nH]cn1)[C@@H](C)O)C(C)C)C(C)C)C(=O)N[C@@H](C)C(=O)N[C@@H](CC(N)=O)C(=O)N[C@H](C(N)=O)[C@@H](C)O
# B7: Peptide 213 (peptide)
# peptide: H[Aib]HGS[αMeF]TSDVSK[αMeF]LDSRAAK([AEEA-AEEA-γGlu-γGlu-C20 diacid])DFVEWIANT-NH2
# modifications: N-terminus assumed
# SMILES: CC[C@H](C)[C@H](NC(=O)[C@H](Cc1c[nH]c2ccccc12)NC(=O)[C@H](CCC(=O)O)NC(=O)[C@@H](NC(=O)[C@H](Cc1ccccc1)NC(=O)[C@H](CC(=O)O)NC(=O)[C@H](CCCCNC(=O)COCCOCCNC(=O)COCCOCCNC(=O)CC[C@H](NC(=O)CC[C@H](NC(=O)CCCCCCCCCCCCCCCCCCC(=O)O)C(=O)O)C(=O)O)NC(=O)[C@H](C)NC(=O)[C@H](C)NC(=O)[C@H](CCCNC(=N)N)NC(=O)[C@H](CO)NC(=O)[C@H](CC(=O)O)NC(=O)[C@H](CC(C)C)NC(=O)[C@](C)(Cc1ccccc1)NC(=O)[C@H](CCCCN)NC(=O)[C@H](CO)NC(=O)[C@@H](NC(=O)[C@H](CC(=O)O)NC(=O)[C@H](CO)NC(=O)[C@@H](NC(=O)[C@](C)(Cc1ccccc1)NC(=O)[C@H](CO)NC(=O)CNC(=O)[C@H](Cc1c[nH]cn1)NC(=O)C(C)(C)NC(=O)[C@@H](N)Cc1c[nH]cn1)[C@@H](C)O)C(C)C)C(C)C)C(=O)N[C@@H](C)C(=O)N[C@@H](CC(N)=O)C(=O)N[C@H](C(N)=O)[C@@H](C)O
# B8: Peptide 233 (peptide)
# peptide: H[Aib]HGS[αMeF]TSDVSK[αMeF]LDSRAAK([AEEA-AEEA-γGlu-γGlu-C20 diacid])D[αMeF]VQ[Aib]IANTGG-NH2
# modifications: N-terminus assumed
# SMILES: CC[C@H](C)[C@H](NC(=O)C(C)(C)NC(=O)[C@H](CCC(N)=O)NC(=O)[C@@H](NC(=O)[C@](C)(Cc1ccccc1)NC(=O)[C@H](CC(=O)O)NC(=O)[C@H](CCCCNC(=O)COCCOCCNC(=O)COCCOCCNC(=O)CC[C@H](NC(=O)CC[C@H](NC(=O)CCCCCCCCCCCCCCCCCCC(=O)O)C(=O)O)C(=O)O)NC(=O)[C@H](C)NC(=O)[C@H](C)NC(=O)[C@H](CCCNC(=N)N)NC(=O)[C@H](CO)NC(=O)[C@H](CC(=O)O)NC(=O)[C@H](CC(C)C)NC(=O)[C@](C)(Cc1ccccc1)NC(=O)[C@H](CCCCN)NC(=O)[C@H](CO)NC(=O)[C@@H](NC(=O)[C@H](CC(=O)O)NC(=O)[C@H](CO)NC(=O)[C@@H](NC(=O)[C@](C)(Cc1ccccc1)NC(=O)[C@H](CO)NC(=O)CNC(=O)[C@H](Cc1c[nH]cn1)NC(=O)C(C)(C)NC(=O)[C@@H](N)Cc1c[nH]cn1)[C@@H](C)O)C(C)C)C(C)C)C(=O)N[C@@H](C)C(=O)N[C@@H](CC(N)=O)C(=O)N[C@H](C(=O)NCC(=O)NCC(N)=O)[C@@H](C)O
# Target: human GLP-1 receptor (hGLP-1R) (human, UniProt P43220 24-463)
# Assay: cell-based or functional assay
row,hGLP-1R EC50 (pM),Binder
1,40.2 pM,B1
2,15.3 pM,B2
3,8.71 pM,B3

# Target: human glucagon receptor (hGCGR) (human, UniProt P47871 26-477)
# Assay: cell-based or functional assay
# human glucagon receptor (hGCGR), sequence (P47871 26-477): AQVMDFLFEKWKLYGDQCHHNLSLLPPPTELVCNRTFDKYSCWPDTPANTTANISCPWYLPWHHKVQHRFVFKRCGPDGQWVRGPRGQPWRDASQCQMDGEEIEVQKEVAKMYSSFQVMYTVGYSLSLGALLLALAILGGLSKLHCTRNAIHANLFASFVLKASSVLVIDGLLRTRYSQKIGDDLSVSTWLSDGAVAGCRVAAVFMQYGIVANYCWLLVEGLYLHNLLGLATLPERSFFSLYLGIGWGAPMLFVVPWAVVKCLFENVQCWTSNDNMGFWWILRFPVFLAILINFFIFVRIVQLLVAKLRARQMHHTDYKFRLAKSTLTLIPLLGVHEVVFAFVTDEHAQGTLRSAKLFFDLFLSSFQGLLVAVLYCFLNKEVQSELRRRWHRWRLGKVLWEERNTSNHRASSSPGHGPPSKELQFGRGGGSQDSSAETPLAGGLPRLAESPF
row,hGluc-R EC50 (pM),Binder
1,568 pM,B1
2,43.5 pM,B2
3,2650 pM,B3

# Target: human GLP-1 receptor (human, UniProt P43220 24-463)
# Assay: cell-based or functional assay
row,"hGLP-1R EC50 (pM), cAMP",Binder
1,156 pM,B4
2,122 pM,B5
3,7620 pM,B6
4,534 pM,B7

# Target: human glucagon receptor (human, UniProt P47871 26-477)
# Assay: cell-based or functional assay
# human glucagon receptor, sequence (P47871 26-477): as above
row,"hGluc-R EC50 (pM), cAMP",Binder
1,93.7 pM,B4
2,123 pM,B5
3,407 pM,B8
4,2610 pM,B6
5,141 pM,B7

# — US20230357348A1 (AstraZeneca / MedImmune, published 2023)
